Data as given in patent publication US20200010536A1.

B1: SA-13 (antibody, V domains shown)
VH: QVQLVESGGGLVRPGGSLRLSCAASGFTFSEYYMSWIRQAPGKGLEWLSYISSSGTTIGHADSLKGRFTISRDNARNSLFLQMNSLRAEDTAVYYCARDGVGGPRARYDAFDIWGQGTLVTVSS
VL: QSVLTQPPSVSGAPGQRVTISCTGTYSNIGAGYDVHWYQQLPGRAPKLLIYGNRNRPSGVPDRFSGSKSGTSASLAITGLQAEDEADYYCQSHDSSLSGSVFGGGTKVTVL
B2: SA-15 (antibody, V domains shown)
VH: QVQLVQSGGGVVQPGRSLRLSCAASGFSFSTYDMNWVRQAPGKGLEWLSIISYDETNKYYADSVKGRFTISRDNSKNTLFLQMNSLKPEDSAVYHCVKVGWTLVGDGVDMWGQGTLVTVSS
VL: QPVLTQSPSSLSASVGDRVTISCRASQGISHYLAWYQQQPGKVPKLLIYAASTLQSGVPSRFSGSGSGTDFTLTISSLQPEDVATYYCQKYNGAPFTFGPGTKVDIK
B3: SA-17 (antibody, V domains shown)
VH: QVQLVQSGGAVVQPGGSLRLSCVASGFTFDDYAMHWVRQAPGKGLEWVSLITLDGGRTYYADSVKGRFTISRDNSKNSLYLQMNRLRADDTGFYYCARDIKIGEAVMITVPGQHWGQGTLVTVSS
VL: QSVVTQDPGVSVALGQTVFITCQGDTLRSNYANWFQQKPGQAPVLVMYGKNNRPSGIPDRFSGSSSGNTASLTITGAQAEDEADYYCNSRDSSGNHVVFGGGTRVTVL

What follows are binders tested against LukAB heterodimer (Staphylococcus aureus) (assay: ELISA, immobilized LukAB, anti-human IgG-peroxidase detection).
In the case of B1, the EC50 is reported as 0.8 µg/mL.
B2 was tested, and the EC50 was 1.5 µg/mL.
For B3, the EC50 was 0.3 µg/mL.
